Reference: patent US20080194027, “Compositions, methods and kits based on small nuclear RNAs” (Trustees of the University of Pennsylvania, published 2008)

Assays:
[1] = biological target: T1, snRNP total proteins (TPs; seven Sm proteins plus U1 snRNP proteins) (Homo sapiens, UniProt P14678;P62314;P62316;P62318;P62304;P62306;P62308;P08621;P09012;P09234 …); assay: pulldown; Sm core assembly, Y12 IP; conditions: tags: anti-TMG immunopurified from HeLa; label: 32P-UTP
[2] = biological target: T1, snRNP total proteins (TPs; seven Sm …); assay: pulldown; Y12 IP; phosphorothioate interference at U92, C86, G109, none in Sm site; conditions: tags: anti-TMG immunopurified from HeLa; label: 32P-UTP

Row | Binder | binding result [1] | binding result [2]
1 | ACUUUUG (ssRNA, [none]) [HSUR5-60 Sm U1C] | binds | 
2 | AUUUUUG (ssRNA) [HSUR5-60 (nt 60-114)] |  | binds
3 | AUUUCUG (ssRNA, [none]) [HSUR5-60 Sm U4C] | binds | 
4 | AUUCUUG (ssRNA, [none]) [HSUR5-60 Sm U3C] | binds | 
5 | AUCUUUG (ssRNA, [none]) [HSUR5-60 Sm U2C] | binds | 
